# Assay results reported in US20020127539A1, “Assays for identifying receptors having alterations in signaling” (priority 2000, published 2002).
# T1: CCK-BR (Homo sapiens, UniProt P32239, L325E)
# T1 sequence (P32239 1-447 L325E): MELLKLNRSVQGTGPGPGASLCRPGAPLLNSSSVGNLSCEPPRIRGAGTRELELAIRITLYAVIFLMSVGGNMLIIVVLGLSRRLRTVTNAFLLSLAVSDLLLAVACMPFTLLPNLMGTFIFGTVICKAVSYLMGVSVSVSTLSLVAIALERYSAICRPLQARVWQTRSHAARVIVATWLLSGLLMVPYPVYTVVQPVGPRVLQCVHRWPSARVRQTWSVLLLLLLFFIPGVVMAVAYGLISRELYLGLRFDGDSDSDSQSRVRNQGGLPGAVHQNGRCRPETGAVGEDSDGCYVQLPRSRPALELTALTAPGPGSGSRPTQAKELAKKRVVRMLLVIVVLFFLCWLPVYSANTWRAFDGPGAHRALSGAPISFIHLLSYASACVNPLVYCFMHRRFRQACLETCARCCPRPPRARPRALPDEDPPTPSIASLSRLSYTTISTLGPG
# B1: Asn150Ala rat mu opioid receptor: rat mu opioid receptor with Asn to Ala point mutation at position 150 of SEQ ID NO: 1 (protein, UniProt P33535 1-398, looked up, variant N150A)
# Mu-type opioid receptor: MDSSTGPGNTSDCSDPLAQASCSPAPGSWLNLSHVDGNQSDPCGLNRTGLGGNDSLCPQTGSPSMVTAITIMALYSIVCVVGLFGNFLVMYVIVRYTKMKTATNIYIFNLALADALATSTLPFQSVNYLMGTWPFGTILCKIVISIDYYAMFTSIFTLCTMSVDRYIAVCHPVKALDFRTPRNAKIVNVCNWILSSAIGLPVMFMATTKYRQGSIDCTLTFSHPTWYWENLLKICVFIFAFIMPVLIITVCYGLMILRLKSVRMLSGSKEKDRNLRRITRMVLVVVAVFIVCWTPIHIYVIIKALITIPETTFQTVSWHFCIALGYTNSCLNPVLYAFLDENFKRCFREFCIPTSSTIEQQNSTRVRQNTREHPSTANTVDRTNHQLENLEAETAPLP
# B2: Leu325Glu CCK-BR mutant: human CCK-BR with point mutation Leu325Glu, constitutively active (protein, UniProt P32239 1-447, looked up, variant L325E)
# Gastrin/cholecystokinin type …: MELLKLNRSVQGTGPGPGASLCRPGAPLLNSSSVGNLSCEPPRIRGAGTRELELAIRITLYAVIFLMSVGGNMLIIVVLGLSRRLRTVTNAFLLSLAVSDLLLAVACMPFTLLPNLMGTFIFGTVICKAVSYLMGVSVSVSTLSLVAIALERYSAICRPLQARVWQTRSHAARVIVATWLLSGLLMVPYPVYTVVQPVGPRVLQCVHRWPSARVRQTWSVLLLLLLFFIPGVVMAVAYGLISRELYLGLRFDGDSDSDSQSRVRNQGGLPGAVHQNGRCRPETGAVGEDSDGCYVQLPRSRPALELTALTAPGPGSGSRPTQAKELAKKRVVRMLLVIVVLFFLCWLPVYSANTWRAFDGPGAHRALSGAPISFIHLLSYASACVNPLVYCFMHRRFRQACLETCARCCPRPPRARPRALPDEDPPTPSIASLSRLSYTTISTLGPG
# B3: wild-type rat mu opioid receptor: wild-type rat mu opioid receptor expressed from an expression vector in HEK293 cells (protein, UniProt P33535 1-398, looked up)
# Mu-type opioid receptor: MDSSTGPGNTSDCSDPLAQASCSPAPGSWLNLSHVDGNQSDPCGLNRTGLGGNDSLCPQTGSPSMVTAITIMALYSIVCVVGLFGNFLVMYVIVRYTKMKTATNIYIFNLALADALATSTLPFQSVNYLMGTWPFGTILCKIVISIDYYNMFTSIFTLCTMSVDRYIAVCHPVKALDFRTPRNAKIVNVCNWILSSAIGLPVMFMATTKYRQGSIDCTLTFSHPTWYWENLLKICVFIFAFIMPVLIITVCYGLMILRLKSVRMLSGSKEKDRNLRRITRMVLVVVAVFIVCWTPIHIYVIIKALITIPETTFQTVSWHFCIALGYTNSCLNPVLYAFLDENFKRCFREFCIPTSSTIEQQNSTRVRQNTREHPSTANTVDRTNHQLENLEAETAPLP
# Tests used:
# rat mu opioid receptor [1] = target: T2, rat mu opioid receptor (Rattus norvegicus, UniProt P33535, N150A); experiment: CRE-Luc luciferase reporter assay with forskolin stimulation; format: cell-based; conditions: 0.5 μM forskolin; a decrease means more Gαi signaling
# T2 construct: expressed in transfected cells; host or cells: HEK293
# Text: Similarly, a constitutively active rat mu opioid receptor was identified using a reporter construct sensitive to Gαi coupling (see FIG. 3). The response element employed in this assay was the cAMP-response element (CRE), which is sensitive to Gαi mediated changes in intracellular levels of cAMP. Signaling through the rat mu opioid receptor via Gαi inhibits adenylate cyclase, causing a decrease in intracellular cAMP. Therefore, an increase in rat mu opioid receptor signaling induces a decrease in CRE mediated reporter activity.
# Prior to the present invention, Gαi-mediated decreases in intracellular cAMP were measured by (1) stimulating cells with forskolin, which causes receptor-independent activation of adenylate cyclase and generates an intracellular pool of cAMP; (2) stimulating the cells with ligand; and (3) measuring the ligand-induced, receptor-dependent Gαi-mediated decrease in the intracellular cAMP pool (e.g., using a radioimmunoassay (e.g., New England Nuclear, Boston, Mass.)). […] The basal (and ligand-induced) level of receptor activity was then measured using a standard luciferase assay (see FIG. 3). Coexpression of the receptor of interest with a luciferase reporter gene construct allows one to measure light emission as a readout for basal signaling.
# rat mu opioid receptor [2] = target: T2, rat mu opioid receptor; experiment: SRE-Luc/Gq5i luciferase reporter assay in HEK293 cells; format: cell-based
# Procedure: (§1) Reagents & Solutions: The cell culture media used in the assays described below was Gibco BRL #12100-046. This media was made according to manufacturer's recipe, pH adjusted to 7.2, filtered (0.22 micron pore), and supplemented with 1% Pen/Strep (Gibco #15140-122; 100% penicillin G 10,000 units/ml, and streptomycin 10,000 μg/ml) and 10% fetal bovine serum. Cell culture media lacking 10% fetal bovine serum was also generated. DNA used in the transfection experiments was purified and quantitated by measuring the absorbance at OD260. A LucLite Luciferase Assay Kit (Packard) was used to quantitate luciferase activity. Transfections were carried out using LipofectAMINE Reagent (Gibco #18324-012).
# (§2) Constitutive activity of the Asn150Ala mutant rat mu opioid receptor was assessed using a luciferase assay. The rat mu opioid receptor is a Gαi coupled receptor. Therefore we chose to use the Gq5i reporter system, described in detail above (Broach and Thorner, supra), which switches the signaling pathway from Gαi to Gαq for reliable positive readout. HEK293 cells were transfected with the reporter construct SRE-Luc, an expression vector containing nucleic acid encoding Gq5i (Broach and Thorner, supra), and an expression vector containing nucleic acid encoding either the wild-type or the Asn150Ala mutant rat mu opioid receptor. Basal and ligand-stimulated luciferase activity was measured. The ligand used in this assay was [D-Ala^2-MePhe^4, Gly-ol^5]enkephalin] (DAMGO). As a negative control, HEK293 cells were transfected with pcDNA1 (empty vector DNA), SRE-Luc, and the expression vector containing nucleic acid encoding Gq5i (Broach and Thorner, supra).
# (§3) The luciferase assay was carried out as follows. On day 1, HEK293 cells in a T75 flask were washed with 15 ml serum-free media (or PBS), trypsinized with 5 ml 0.05% trypsin-EDTA (Gibco #25300-062), incubated at 37° C. for 3 minutes at which time 6-7 ml complete HEK293 media (Gibco #12100-046) and 10% Fetal Bovine Serum (Intergen #1050-90) were added. Thereafter, cells were collected in 50 ml centrifuge tubes, pelleted at 800-900 rpm (RCF ˜275), and resuspend in 20 ml complete media. The cells were counted using a haemocytometer and diluted to 85,000 cells/ml in complete media. Using a repeat pipettor or cell plater, 100 μl of cells were added to each well of a Primaria 96-well plate (Falcon #353872). Cells were then incubated at 37° C., 5% CO2 until use at 48 hours.
# (§4) On day 3, cells were transfected using LipofectAMINE™ according to the manufacturer's protocol (Gibco #18324-012, Rockville, Md.).
# (§5) On day 4, cells were stimulated as follows. Ligands for the receptor, either DAMGO or a non-peptide ligand (e.g., naltrexene or nalonin), were diluted to a desired concentration in serum-free media containing 0.15 mM PMSF (or other protease inhibitor(s)). The transfection media was then completely removed from cells and 50-100 μl stimulation media (i.e., media containing candidate ligands or the corresponding ligand free solvent) was added to each well. The cells were incubated for the desired time (standard is overnight) at 37° C., 5% CO2, although the optimal stimulation time may vary depending on the particular receptor used. The optimal incubation time may be determined systematically by testing a range of incubation times and determining which one yields the highest level of stimulation. For concomitant assessment of two ligands (e.g., ligand induced inhibition of forskolin stimulated CRE activity) each stimulus is prepared at two times the desired final concentration and mixed in equal volumes prior to addition to cells.
# (§6) On day 5, an assay for luciferase expression was carried out according to the manufacturer's instructions (Packard, Meridin, Conn.)
# rat mu opioid receptor [3] = experiment: as above; format: cell-based; conditions: HEK293, SRE + Gq5i; for Average Ligand Stimulated Activity (Light Emission): ligand DAMGO; for Average Basal Activity (Light Emission): no ligand
# Procedure: as §1, §2, §3, §4, §5, §6
# CCK-BR [4] = target: T1, CCK-BR; parameters: expressed in transfected cells; host or cells: COS-7; conditions: COS-7, absence of agonist; cited from earlier work
# CCK-BR [5] = target: T1, CCK-BR; experiment: SMS-Luc luciferase reporter assay in HEK293 cells; format: cell-based; parameters: expressed in transfected cells; host or cells: HEK293; conditions: FIG. 2
# Text: HEK293 cells were transfected (as described above) with SMS-Luc and an expression vector encoding any one of pcDNA1, wild-type CCK-BR, or Leu325Glu CCK-BR.
Molecule,basal CRE-Luc reporter activity compared to wild-type receptor (rat mu opioid receptor [1]),basal activity relative to the maximal level of ligand-stimulated second messenger signaling (rat mu opioid receptor [2]),"stimulation of basal level activity (increase in basal activity vs wild-type) (rat mu opioid receptor [2]; HEK293, SRE + Gq5i, listed as Asn150Ala mutant mu opioid receptor)",Average Ligand Stimulated Activity (Light Emission) (rat mu opioid receptor [3]),Average Basal Activity (Light Emission) (rat mu opioid receptor [3]),constitutive production of inositol phosphates (CCK-BR [4]),basal level activity compared to wild-type CCK-BR (CCK-BR [5])
B1,reduction in basal activity,exceeded 50%,approximately 6.5 fold,"86,996","*56,498",–,–
B2,–,–,–,–,–,levels exceeding wild-type CCK-BR,increased basal level activity
B3,–,–,–,"87,461","8,436",–,–
